Data published in patent US20200095296A1 (TRUSTEES OF COLUMBIA UNIVERSITY IN THE CITY OF NEW YORK, published 2020).
Substitutions are numbered along the chain they refer to. Where no end group is shown, it is not given here. [ ]: non-standard residue; d: D form. pY = N[C@@H](Cc1ccc(OP(=O)(O)O)cc1)C(=O)O

Assays:
HLA DPB1*05:01 = target: T1, HLA DPB1*05:01 (human); assay: competition with radiolabeled peptide, purified HLA
T1 construct: purified HLA class II molecule; only the beta-chain allele is printed

HLA DPB1*04:01 = target: T2, HLA DPB1*04:01 (human); assay: as above
T2 chain 1: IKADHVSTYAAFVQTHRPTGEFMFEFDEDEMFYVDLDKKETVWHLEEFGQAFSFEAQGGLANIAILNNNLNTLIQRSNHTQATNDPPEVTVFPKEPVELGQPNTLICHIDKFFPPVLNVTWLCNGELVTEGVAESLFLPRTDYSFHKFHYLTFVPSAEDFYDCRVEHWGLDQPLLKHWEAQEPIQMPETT
T2 chain 2: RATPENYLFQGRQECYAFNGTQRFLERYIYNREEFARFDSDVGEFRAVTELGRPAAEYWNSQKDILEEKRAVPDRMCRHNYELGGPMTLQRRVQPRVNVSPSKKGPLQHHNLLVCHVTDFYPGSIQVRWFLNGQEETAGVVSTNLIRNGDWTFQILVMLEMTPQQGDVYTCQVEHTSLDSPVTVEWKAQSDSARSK

HLA DPB1*04:02 = target: T3, HLA DPB1*04:02 (human); assay: as above
T3 construct: purified HLA class II molecule; only the beta-chain allele is printed

HLA DPB1*02:01 = target: T4, HLA DPB1*02:01 (human); assay: as above
T4 chain 1: T2 chain 1
T4 chain 2: T2 chain 2 with A36V, A55D, A56E, K69E

HLA DQB1*05:01 = target: T5, HLA DQB1*05:01 (human); assay: as above
T5 construct: purified HLA class II molecule; only the beta-chain allele is printed

HLA DRB1*04:01 = target: T6, HLA DRB1*04:01 (human); assay: as above
T6 construct: purified HLA class II molecule; only the beta-chain allele is printed

HLA DRB3*01:01 = target: T7, HLA DRB3*01:01 (human); assay: as above
T7 construct: purified HLA class II molecule; only the beta-chain allele is printed

HLA DQB1*04:02 = target: T8, HLA DQB1*04:02 (human); assay: as above
T8 construct: purified HLA class II molecule; only the beta-chain allele is printed

HLA A*11:01 = target: T9, HLA A*11:01 (human); assay: competition with radiolabeled peptide, purified HLA A*11:01
T9 construct: purified HLA A*11:01 molecules

B1: alpha-syn peptide aa32KTKEGVLYVGSKTKEaa46 phosphorylated at Y39 (peptide)
peptide: KTKEGVL[pY]VGSKTKE
notes: synthetic post-translationally modified 15-mer; also called Phospho-Y
IC50 (HLA DPB1*05:01): 777 nM
IC50 (HLA DPB1*04:01): 937 nM
IC50 (HLA DPB1*04:02): 1600 nM
IC50 (HLA DPB1*02:01): 620 nM

DNEAYEMPSEEGYQD (synthetic 15-mer of alpha-synuclein) [alpha-syn peptide aa121DNEAYEMPSEEGYQDaa135]
IC50 (HLA DQB1*05:01): 7 nM
IC50 (HLA DRB1*04:01): 76 nM
IC50 (HLA DRB3*01:01): 787 nM
IC50 (HLA DQB1*04:02): 51 nM

VLYVGSKTK (synthetic 9-mer; also called the 9 mer) [alpha-syn peptide aa37VLYVGSKTKaa45]
IC50 (HLA A*11:01): 161 nM
